The results in this text go back to US20090099074A1, “MODULATING FOOD INTAKE” (CONJUCHEM BIOTECHNOLOGIES INC., priority 2007, published 2009).

The target in this assay is NPY Y1 receptor. Kind of assay: in vitro NPY Y1 receptor binding assay; tracer and cells not stated.
Sequence of NPY Y1 receptor (P25929 whole entry): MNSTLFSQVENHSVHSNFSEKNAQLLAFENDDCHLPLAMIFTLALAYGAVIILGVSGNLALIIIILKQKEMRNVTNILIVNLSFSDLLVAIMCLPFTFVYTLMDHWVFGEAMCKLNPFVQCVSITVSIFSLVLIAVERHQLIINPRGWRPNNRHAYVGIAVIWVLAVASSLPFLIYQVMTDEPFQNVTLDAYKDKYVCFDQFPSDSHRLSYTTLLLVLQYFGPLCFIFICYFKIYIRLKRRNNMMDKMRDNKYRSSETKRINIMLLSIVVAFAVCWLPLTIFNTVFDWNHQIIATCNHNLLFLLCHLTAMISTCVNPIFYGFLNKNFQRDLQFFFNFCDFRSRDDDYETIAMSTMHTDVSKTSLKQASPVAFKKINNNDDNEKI

“NPY(human, rat) control (from UniProt P01303 29-64) (peptide)” registered a 50% inhibitory concentration (IC50) of 1.09 nM. That is a single-digit nanomolar value.

A word on the IC50: it is the point on the concentration scale where inhibition reaches its midpoint. Read a high IC50 as weaker potency in that assay.
